Experimental data taken from patent publication US10500249B2, “Compositions and methods for preventing or treating diseases, conditions, or processes characterized by aberrant fibroblast proliferation and extracellular matrix deposition” (MOERAE MATRIX, INC., priority 2014, dated 2019).

Legend:
Experiment in all cases: Kinase Profiling Assay
Format in all cases: biochemical
Conditions in all cases: 100 μM
[1] = biological target: T1, Mnk2 (h) (Homo sapiens, UniProt Q9HBH9)
T1 construct: purchased Millipore
T1 sequence (Q9HBH9 whole entry): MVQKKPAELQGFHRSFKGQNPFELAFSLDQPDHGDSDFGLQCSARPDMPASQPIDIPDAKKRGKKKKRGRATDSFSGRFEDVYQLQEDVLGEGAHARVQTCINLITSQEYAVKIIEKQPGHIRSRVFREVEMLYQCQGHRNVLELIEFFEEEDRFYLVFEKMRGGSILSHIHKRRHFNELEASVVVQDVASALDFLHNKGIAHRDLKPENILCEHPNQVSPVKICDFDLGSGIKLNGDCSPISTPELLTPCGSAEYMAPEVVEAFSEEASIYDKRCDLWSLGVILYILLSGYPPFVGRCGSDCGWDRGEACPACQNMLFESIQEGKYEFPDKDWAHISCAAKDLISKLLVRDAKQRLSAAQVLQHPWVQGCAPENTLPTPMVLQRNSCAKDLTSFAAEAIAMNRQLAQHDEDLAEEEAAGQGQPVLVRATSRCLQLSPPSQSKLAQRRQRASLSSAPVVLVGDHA
Summary of the method: (§1)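 Duplicate wells; [radiolabeled] ATP phosphate onto cationic substrate; filter capture (negatively charged membrane); scintillation count; % of 100% activity control. Selectivity screen of MK2 peptide inhibitors, 266 human kinases.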

[2] = biological target: T2, DMPK (h) (Homo sapiens, UniProt Q09013)
T2 construct: purchased Millipore
T2 sequence (Q09013 1-629): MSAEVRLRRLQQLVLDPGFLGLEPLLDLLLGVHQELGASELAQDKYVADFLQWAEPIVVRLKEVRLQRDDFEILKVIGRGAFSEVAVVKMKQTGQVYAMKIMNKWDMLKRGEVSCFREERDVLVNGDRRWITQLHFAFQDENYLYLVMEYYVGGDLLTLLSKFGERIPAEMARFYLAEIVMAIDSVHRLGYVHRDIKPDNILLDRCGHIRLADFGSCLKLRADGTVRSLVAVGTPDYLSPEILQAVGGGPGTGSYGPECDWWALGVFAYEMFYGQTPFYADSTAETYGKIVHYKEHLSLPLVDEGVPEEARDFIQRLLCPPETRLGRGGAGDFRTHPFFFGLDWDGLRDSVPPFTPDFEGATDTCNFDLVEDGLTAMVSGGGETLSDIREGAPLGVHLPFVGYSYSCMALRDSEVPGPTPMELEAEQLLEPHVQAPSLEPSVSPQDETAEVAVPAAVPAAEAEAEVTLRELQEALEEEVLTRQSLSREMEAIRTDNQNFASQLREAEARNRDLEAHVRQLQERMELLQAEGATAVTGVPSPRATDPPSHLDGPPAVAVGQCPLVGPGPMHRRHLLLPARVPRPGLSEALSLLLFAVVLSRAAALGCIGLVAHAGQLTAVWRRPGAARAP
Summary of the method: as §1

[3] = biological target: T3, SGK3 (h) (Homo sapiens, UniProt Q96BR1)
T3 sequence (Q96BR1 1-496): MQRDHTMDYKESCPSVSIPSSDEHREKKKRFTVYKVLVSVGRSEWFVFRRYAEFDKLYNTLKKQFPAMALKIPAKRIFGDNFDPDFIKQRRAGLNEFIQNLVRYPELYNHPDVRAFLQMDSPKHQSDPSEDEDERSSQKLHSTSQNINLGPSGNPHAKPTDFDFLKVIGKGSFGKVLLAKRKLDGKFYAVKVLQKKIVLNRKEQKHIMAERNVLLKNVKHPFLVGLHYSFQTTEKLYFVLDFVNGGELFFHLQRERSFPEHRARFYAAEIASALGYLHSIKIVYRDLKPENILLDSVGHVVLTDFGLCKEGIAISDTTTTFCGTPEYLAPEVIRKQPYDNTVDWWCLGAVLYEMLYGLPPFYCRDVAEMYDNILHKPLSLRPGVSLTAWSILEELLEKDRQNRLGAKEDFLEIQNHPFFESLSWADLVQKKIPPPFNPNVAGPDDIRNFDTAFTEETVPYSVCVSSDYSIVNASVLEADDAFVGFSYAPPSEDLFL
Summary of the method: as §1

[4] = biological target: T4, GRK7 (h) (Homo sapiens, UniProt Q8WTQ7)
T4 construct: purchased Millipore
T4 sequence (Q8WTQ7 1-553): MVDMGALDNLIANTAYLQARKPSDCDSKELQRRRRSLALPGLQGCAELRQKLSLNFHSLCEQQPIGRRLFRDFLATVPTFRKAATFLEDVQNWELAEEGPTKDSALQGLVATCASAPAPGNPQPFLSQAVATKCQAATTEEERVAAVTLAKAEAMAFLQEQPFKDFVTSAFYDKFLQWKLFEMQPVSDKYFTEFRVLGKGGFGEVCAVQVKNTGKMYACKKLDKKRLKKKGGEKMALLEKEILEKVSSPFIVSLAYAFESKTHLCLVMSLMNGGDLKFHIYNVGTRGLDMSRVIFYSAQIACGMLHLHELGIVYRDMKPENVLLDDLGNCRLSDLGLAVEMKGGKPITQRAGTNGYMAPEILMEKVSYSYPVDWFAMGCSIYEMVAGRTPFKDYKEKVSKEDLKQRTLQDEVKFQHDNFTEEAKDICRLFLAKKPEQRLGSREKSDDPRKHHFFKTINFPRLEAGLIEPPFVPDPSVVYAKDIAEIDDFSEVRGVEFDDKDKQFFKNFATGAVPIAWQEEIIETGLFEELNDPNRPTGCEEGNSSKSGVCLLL
Summary of the method: as §1

[5] = biological target: T5, CLK3 (h) (Homo sapiens, UniProt P49761)
T5 construct: purchased Millipore
T5 sequence (P49761 whole entry): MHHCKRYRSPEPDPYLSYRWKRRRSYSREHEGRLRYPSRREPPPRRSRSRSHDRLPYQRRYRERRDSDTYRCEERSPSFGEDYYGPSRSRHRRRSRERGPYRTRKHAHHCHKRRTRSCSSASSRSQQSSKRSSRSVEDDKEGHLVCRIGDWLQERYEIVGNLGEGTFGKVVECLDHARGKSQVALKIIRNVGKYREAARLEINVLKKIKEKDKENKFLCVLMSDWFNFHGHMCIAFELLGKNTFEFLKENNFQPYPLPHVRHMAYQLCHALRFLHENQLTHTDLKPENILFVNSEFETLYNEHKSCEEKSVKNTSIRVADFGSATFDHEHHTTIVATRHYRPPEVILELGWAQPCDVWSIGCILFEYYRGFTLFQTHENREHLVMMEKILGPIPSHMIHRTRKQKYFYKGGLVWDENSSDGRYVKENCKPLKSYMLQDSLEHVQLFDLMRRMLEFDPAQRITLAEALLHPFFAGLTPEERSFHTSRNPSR
Summary of the method: as §1

Sequence	% activity [1]	% activity [2]	% activity [3]	% activity [4]	% activity [5]
FAKLAARLYRKALARQLGVAA [MMI-0300]	89%	59%	10%	122%	61%
HRRIKAWLKKIKALARQLGVAA (Mammalian) [MMI-0500]	6%	12%	−3%	93%	76%
KAFAKLAARLYRKALARQLGVAA [MMI-0400]	86%	54%	8%	100%	84%
YARAAARQARAKALNRQLGVA (Mammalian) [MMI-0200]	–	66%	58%	124%	76%
